Results published in patent US20240376151A1, “STAPLED PEPTIDES AND METHODS THEREOF” (FOG PHARMACEUTICALS, INC., priority 2022, published 2024).
Ends that are not written are not given here.

Assays:
Type in all cases: binding
CUL5 = molecular target: T1, CUL5 (Homo sapiens, UniProt Q93034, L345D/V341R); experiment: Naive Library Presenter Screening (phage, NGS), CUL5; settings: for interaction data at Target Concentration 10: CUL5 target concentration 10 nM; for interaction data at Target Concentration 30: CUL5 target concentration 30 nM; for interaction data at Target Concentration 300: CUL5 target concentration 300 nM; for interaction data at Target Concentration 1000: CUL5 target concentration 1000 nM; for interaction data at Target Concentration 100: CUL5 target concentration 100 nM
T1 construct: GST-TEV (N, cleaved yes); made in house; host or cells: E. coli BL21 CodonPlus
T1 sequence (Q93034 1-386 V341R/L345D): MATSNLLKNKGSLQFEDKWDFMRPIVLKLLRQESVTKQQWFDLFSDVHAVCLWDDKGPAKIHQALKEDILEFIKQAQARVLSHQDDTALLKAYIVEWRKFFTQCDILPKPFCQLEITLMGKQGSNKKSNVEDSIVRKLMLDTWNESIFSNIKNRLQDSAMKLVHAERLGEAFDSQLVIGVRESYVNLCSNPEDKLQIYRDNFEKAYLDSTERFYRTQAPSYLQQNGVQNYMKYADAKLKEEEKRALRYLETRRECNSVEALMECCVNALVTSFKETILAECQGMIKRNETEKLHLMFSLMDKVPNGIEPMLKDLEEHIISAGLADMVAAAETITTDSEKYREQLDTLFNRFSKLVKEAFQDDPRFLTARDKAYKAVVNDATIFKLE

CUL4B = molecular target: T2, CUL4B (Homo sapiens, UniProt Q13620, L520D/V516R); experiment: Naive Library Presenter Screening (phage, NGS), CUL4B; settings: for interaction data at Target Concentration 1000: CUL4B target concentration 1000 nM
T2 construct: GST-TEV (N, cleaved yes); made in house; host or cells: E. coli BL21 CodonPlus
T2 sequence (Q13620 206-557 V516R/L520D): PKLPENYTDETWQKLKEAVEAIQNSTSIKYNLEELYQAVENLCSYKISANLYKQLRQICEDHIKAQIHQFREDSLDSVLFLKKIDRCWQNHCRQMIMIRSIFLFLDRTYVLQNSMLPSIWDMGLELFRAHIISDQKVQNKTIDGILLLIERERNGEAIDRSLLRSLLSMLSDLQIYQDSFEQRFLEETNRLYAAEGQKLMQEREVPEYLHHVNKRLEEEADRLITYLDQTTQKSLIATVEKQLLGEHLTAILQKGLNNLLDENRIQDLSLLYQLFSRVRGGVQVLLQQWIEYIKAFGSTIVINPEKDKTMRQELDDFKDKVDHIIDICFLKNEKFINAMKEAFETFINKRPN

FBXW7-SKP1 = molecular target: T3, FBXW7-SKP1 (Homo sapiens, UniProt Q969H0); experiment: Naive Library Presenter Screening (phage, NGS), FBXW7-SKP1; settings: for interaction data at Target Concentration 10: FBXW7 target concentration 10 nM; for interaction data at Target Concentration 30: FBXW7 target concentration 30 nM; for interaction data at Target Concentration 100: FBXW7 target concentration 100 nM; for interaction data at Target Concentration 300: FBXW7 target concentration 300 nM; for interaction data at Target Concentration 1000: FBXW7 target concentration 1000 nM
T3 construct: FBXW7 (Uniprot ID: Q969H0, residues 263-706) with an N-terminal GST-TEV tag and C-terminal AVI tag; GST-TEV (N); made in house; host or cells: E. coli BL21 (DE3)
T3 sequence (Q969H0 263-706): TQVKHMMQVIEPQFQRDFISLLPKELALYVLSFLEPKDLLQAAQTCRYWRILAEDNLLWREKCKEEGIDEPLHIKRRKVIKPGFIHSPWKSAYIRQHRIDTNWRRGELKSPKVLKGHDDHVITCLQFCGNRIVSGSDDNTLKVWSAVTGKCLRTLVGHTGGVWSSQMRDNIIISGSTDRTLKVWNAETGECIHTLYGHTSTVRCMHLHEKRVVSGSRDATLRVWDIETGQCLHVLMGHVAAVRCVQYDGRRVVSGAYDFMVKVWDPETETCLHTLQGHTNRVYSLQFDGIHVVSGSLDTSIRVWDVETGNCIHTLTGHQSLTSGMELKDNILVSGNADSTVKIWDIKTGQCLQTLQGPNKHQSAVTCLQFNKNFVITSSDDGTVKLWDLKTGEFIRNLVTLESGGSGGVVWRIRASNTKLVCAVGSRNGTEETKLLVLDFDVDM
T3 sequence (P63208 whole entry partner, the tested form may be a part): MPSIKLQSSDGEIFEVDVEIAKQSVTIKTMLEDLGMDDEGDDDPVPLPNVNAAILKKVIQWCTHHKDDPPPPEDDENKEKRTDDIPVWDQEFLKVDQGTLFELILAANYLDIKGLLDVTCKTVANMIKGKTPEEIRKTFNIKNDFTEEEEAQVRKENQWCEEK
Procedure: To conduct phage library screening, previously described procedures were utilized in accordance with the present disclosure.
Next-generation sequencing was performed as described in accordance with the present disclosure.
Hit ID and Clustering is performed according to a described procedure in accordance with the present disclosure.

Sequence	interaction data at Target Concentration 10 (CUL5)	interaction data at Target Concentration 30 (CUL5)	interaction data at Target Concentration 300 (CUL5)	interaction data at Target Concentration 1000 (CUL5; first column)	interaction data at Target Concentration 1000 (CUL5; second column)	interaction data at Target Concentration 100 (CUL5)	interaction data at Target Concentration 10 (FBXW7-SKP1)	interaction data at Target Concentration 30 (FBXW7-SKP1)	interaction data at Target Concentration 100 (FBXW7-SKP1)	interaction data at Target Concentration 300 (FBXW7-SKP1)	interaction data at Target Concentration 1000 (FBXW7-SKP1; first column)	interaction data at Target Concentration 1000 (FBXW7-SKP1; second column)	further results
DPAWFTCAQAAWDCVFH	0	65	96	224	0								
DPAWHMCAEAAWQCAFW (not fully specified (C-terminus, bridges); cysteine pairing not given here)	5	61	119	152	0	106							
DPAWFDCAEAAWQCVFI	2	35	170	31	0	91							
DPAERHCQLAAWVCHQF													interaction data at Target Concentration 10 (CUL4B; CUL4B target concentration 10 nM): 0; interaction data at Target Concentration 30 (CUL4B; CUL4B target concentration 30 nM): 0; interaction data at Target Concentration 100 (CUL4B; CUL4B target concentration 100 nM): 0; interaction data at Target Concentration 300 (CUL4B; CUL4B target concentration 300 nM): 99; interaction data at Target Concentration 1000 (CUL4B; first column): 29; interaction data at Target Concentration 1000 (CUL4B; second column): 0
DPAYFSCEDAAELCEWY							0	0	1	3	13	38	
DPAIQQCAEAAWSCYVE	0	13	40	14	0	30							
DPATYFCYDAAELCDWW							0	0	1	5	5	82	
DPAIRMCRDAAELCEFW							0	0	1	4	66	94	
DPAAFFCDDAAERCEFW							4	39	35	163	245	449	
DPANIACDDAALLCELW							0	1	1	7	8	6	
DPAFWYCDEAAEMCEFW							0	0	20	28	91	17	
DPAWWECAEAAWQCQVL	0	6	20	59	0	44							
DPADLTCEDAAELCEFW							2	80	352	535	1005	510	
DPAYYVCAEAAWNCLFE	4	46	100	76	0	104							
